Reference: publication PMC5558740, “Absence of CX3CR1 impairs the internalization of Tau by microglia” (Molecular Neurodegeneration, 2017)

Assays:
[1] = molecular target: T1, recombinant human Tau isoform containing 2 N-terminal inserts and 4 microtubule binding repeats (Tau42) (human, UniProt P10636-8 1-441); experiment: affinity chromatography; CX3CR1 peptide coupled to CNBr-activated Sepharose 4B; protein (1 mg/ml) loaded in buffer A (0.1 M Mes pH 6.4, 0.5 mM MgCl2, 2 mM EGTA); bound protein eluted with 0.5 M NaCl in buffer A; fractions read by dot immunoblot; settings: both partners purified
T1 construct: also called purified Tau; source: recombinant, isolated as described previously [25], purified

[2] = molecular target: T2, Tau42 phosphorylated by GSK-3β (phospho-Tau) (human, UniProt P10636-8 1-441, phosphorylated by GSK-3β; phosphoserine at 396 (detected with anti-p-S396); other sites not stated); experiment: as above; settings: both partners purified
T2 construct: the Cy5-labelled form (phospho-Tau-Cy5) was used for the uptake test on microglia; also called Tau phosphorylated by GSK-3β; source: recombinant Tau42 phosphorylated in vitro by GSK-3β (Sigma), heated 5 min at 100 °C, supernatant collected
T2 sequence (P10636 other isoform, or with tags, fused parts or gaps): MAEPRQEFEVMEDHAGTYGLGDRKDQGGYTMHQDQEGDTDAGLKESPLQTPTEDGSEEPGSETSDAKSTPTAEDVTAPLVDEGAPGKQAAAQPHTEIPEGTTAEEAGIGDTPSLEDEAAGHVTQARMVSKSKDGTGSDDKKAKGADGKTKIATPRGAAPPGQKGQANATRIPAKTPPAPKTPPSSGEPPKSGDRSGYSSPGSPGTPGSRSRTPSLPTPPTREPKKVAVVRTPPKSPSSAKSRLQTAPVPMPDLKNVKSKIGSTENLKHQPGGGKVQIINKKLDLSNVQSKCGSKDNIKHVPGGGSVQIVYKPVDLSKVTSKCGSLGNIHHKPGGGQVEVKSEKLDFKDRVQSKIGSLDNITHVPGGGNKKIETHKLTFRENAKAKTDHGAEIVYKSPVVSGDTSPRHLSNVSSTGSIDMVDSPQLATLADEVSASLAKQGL

T1 sequence (P10636 other isoform, or with tags, fused parts or gaps): as above

B1: synthetic CX3CR1 peptide (aa 2-21) containing the binding region to CX3CL1 (peptide)
peptide: DQFPESVTENFEYDDLAEAC
notes: also called synthetic receptor CX3CR1; source: synthetic peptide, bought: Abyntek
**Q.** Does B1 bind [1]?
**A.** Result: binds

**Q.** Does B1 bind [2]?
**A.** Result: binds
